# Measurements from US20060217290A1 (published 2006).
# B1: A0^ArgA21^GlyB29^ArgB31^ArgB32^Lys-human insulin (ligand)
# chain 1: RGIVEQCCTSICSLYQLENYCG
# chain 2: FVNQHLCGSHLVEALYLVCGERGFFYTPRTRK
# notes: Insulin analog; Disulfides A7-B7, A20-B19, A6-A11; also called ArgA0, GlyA21, ArgB29, ArgB31, LysB32-human insulin
# Experiments:
# human insulin receptor = biological target: T1, human insulin receptor (human, UniProt P06213 28-1382); experiment: competitive binding SPA, displacement of [125I] insulin from human IR membranes
# T1 construct: whole, on cells; Assayed as membrane preparation (P1) of transfected 293EBNA cells, not as intact cells; also called IR; HIR
# human IGF-1 receptor = biological target: T2, human IGF-1 receptor (human, UniProt P08069 31-1367); experiment: competitive binding SPA, displacement of [125I]IGF-1 from human IGF-1R membranes
# T2 construct: whole, on cells; Assayed as membrane preparation (P1) of transfected 293EBNA cells, not as intact cells; also called IGF-R; insulin growth factor receptor
binder,measurement,setting,value
B1,Relative IR Affinity (Mean),human insulin receptor,0.21 relative to recombinant human insulin
same,Relative IGF1-R Affinity (Mean),human IGF-1 receptor,1.1 relative to recombinant human insulin
